The text below walks through data of patent publication US20220220215A1 (CRESCENDO BIOLOGICS, published 2022).

B1: TPP-1015: CD137A-6GS-PDA2-6GS-HSA3-His (bispecific antibody)
chain: EVQLVESGGGLVQPGGSLRLSCAASGFTLSNYWMNWVRQAPGKGLEWVANINQDGSERYYVDSVKGRFTISRDNAKNSLYLQMNSLRAEDTAVYYCARGGEGYGVDHYGLDVSGQGTTVTVSSGGGGSGGGGSGGGGSGGGGSGGGGSGGGGSEVQLVESGGGVVRPGGSLRLSCAASGFTFDDYAMSWVRQAPGKGLEWVSGITWNAGSTGYADSVKGRFTISRDNAKNSLYLQMNSLRAEDTALYYCVRDKYSYAWSYDDFDIWGQGTMVTVSSGGGGSGGGGSGGGGSGGGGSGGGGSGGGGSEVQLLESGGGLVKPGGSLRLSCAASGFTVSSYTMNWVRQAPGKGLEWVSSISSSGRYIYYADSVKGRFTISRDNAKNSLYLQMNSLRAEDTAVYYCARDPRMVGNPHEFDIWGQGTMVTVSSAAAHHHHHH
B2: TPP-1018: CD137A-6GS-PD138G7(G109D)-6GS-HSA3-His (bispecific antibody)
chain: EVQLVESGGGLVQPGGSLRLSCAASGFTLSNYWMNWVRQAPGKGLEWVANINQDGSERYYVDSVKGRFTISRDNAKNSLYLQMNSLRAEDTAVYYCARGGEGYGVDHYGLDVSGQGTTVTVSSGGGGSGGGGSGGGGSGGGGSGGGGSGGGGSEVQLVESGGGVVRPGGSLRLSCAASGFTFDDYAMSWVRQAPGKGLEWVSGITWNGGSTGYADSVKDRFTISRDNAKNSLYLQMNSLRAEDTALYYCVRDKYSYAWSYDDFDIWGQGTMVTVSSGGGGSGGGGSGGGGSGGGGSGGGGSGGGGSEVQLLESGGGLVKPGGSLRLSCAASGFTVSSYTMNWVRQAPGKGLEWVSSISSSGRYIYYADSVKGRFTISRDNAKNSLYLQMNSLRAEDTAVYYCARDPRMVGNPHEFDIWGQGTMVTVSSAAAHHHHHH
B3: TPP-1052: PDA2-6GS-HSA3-6GS-CD137D-His (bispecific antibody)
chain: EVQLVESGGGVVRPGGSLRLSCAASGFTFDDYAMSWVRQAPGKGLEWVSGITWNAGSTGYADSVKGRFTISRDNAKNSLYLQMNSLRAEDTALYYCVRDKYSYAWSYDDFDIWGQGTMVTVSSGGGGSGGGGSGGGGSGGGGSGGGGSGGGGSEVQLLESGGGLVKPGGSLRLSCAASGFTVSSYTMNWVRQAPGKGLEWVSSISSSGRYIYYADSVKGRFTISRDNAKNSLYLQMNSLRAEDTAVYYCARDPRMVGNPHEFDIWGQGTMVTVSSGGGGSGGGGSGGGGSGGGGSGGGGSGGGGSEVQLVESGGGVVQPGGSLRLSCAASGFTFSNYGMHWVRQAPGKGLEWVAVISNDGNTKTYADSVKGRFTISRDNSKNTLYLQMNSLRAEDTAVYYCAQDETTTVTASYYFDYWGQGTLVTVSSAAAHHHHHH
B4: TPP-1025: CD137A-6GS-HSA3-2-6GS-PDA2-His (bispecific antibody)
chain: EVQLVESGGGLVQPGGSLRLSCAASGFTLSNYWMNWVRQAPGKGLEWVANINQDGSERYYVDSVKGRFTISRDNAKNSLYLQMNSLRAEDTAVYYCARGGEGYGVDHYGLDVSGQGTTVTVSSGGGGSGGGGSGGGGSGGGGSGGGGSGGGGSEVQLLESGGGLVKPGGSLRLSCAASGFTVSSYTMNWVRQAPGKGLEWVSSISSSGRYIYYADSVKGRFTISRDNAKNSLYLQMNSLRAEDTAVYYCARDPRMVGNPHEFDIWGQGTMVTVSSGGGGSGGGGSGGGGSGGGGSGGGGSGGGGSEVQLVESGGGVVRPGGSLRLSCAASGFTFDDYAMSWVRQAPGKGLEWVSGITWNAGSTGYADSVKGRFTISRDNAKNSLYLQMNSLRAEDTALYYCVRDKYSYAWSYDDFDIWGQGTMVTVSSAAAHHHHHH
B5: TPP-1291 PD138G7(G109D)-6GS-CD137A-6GS-HSA1943 (bispecific antibody)
chain: EVQLVESGGGVVRPGGSLRLSCAASGFTFDDYAMSWVRQAPGKGLEWVSGITWNGGSTGYADSVKDRFTISRDNAKNSLYLQMNSLRAEDTALYYCVRDKYSYAWSYDDFDIWGQGTMVTVSSGGGGSGGGGSGGGGSGGGGSGGGGSGGGGSEVQLVESGGGLVQPGGSLRLSCASGFTLSNYWMNWVRQAPGKGLEWVANINQDGSERYYVDSVKGRFTISRDNAKNSLYLQMNSLRAEDTAVYYCARGGEGYGVDHYGLDVSGQGTTVTVSSGGGGSGGGGSGGGGSGGGGSGGGGSGGGGSEVQLLESGGGLVKPGGSLRLSCAASGFTVSSYTMNWVRQAPGKGLEWVSSISSSGRYIYYADSVKGRFTISRDNAKNSLYLQMNSLRAEDTAVYYCARDPRMVGNPHEFDIWGQGTMVTVSS
B6: TPP-943: PDA-6GS-172E1-13-6GS-HSA2-His (bispecific antibody)
chain: EVQLVESGGGLVQPGRSLRLSCAASGFTFDDYALHWVRQAPGKDLEWVSGISWNGGSYGYADSVKGRFTISRDNAKNSLYLQMNSLRAEDTALYYCVREKGPGLTGSTADYYGLDAWGQGTMVTVSSGGGGSGGGGSGGGGSGGGGSGGGGSGGGGSEVQLVESGGGVVQPGGSLRLSCAASGFTFSNYGMHWVRQAPGKGLEWVAVISNDGNTKTYADSVKGRFTISRDNSKNTLYLQMNSLRAEDTAVYYCAQDETTTVTASYYFDYWGQGTLVTVSSGGGGSGGGGSGGGGSGGGGSGGGGSGGGGSEVQLLESGGGLVKPGGSLRLSCAASGFTVSSYTMNWVRQAPGKGLEWVSSISSSGRYIYYADSVKGRFTISRDNAKNSLYLQMNSLRAEDTAVYYCARDPRMVGNPHEFDIWGQGTMVTVSSAAAHHHHHH
B7: TPP-1014: CD137A-6GS-PDA-6GS-HSA-His (bispecific antibody)
chain: EVQLVESGGGLVQPGGSLRLSCAASGFTLSNYWMNWVRQAPGKGLEWVANINQDGSERYYVDSVKGRFTISRDNAKNSLYLQMNSLRAEDTAVYYCARGGEGYGVDHYGLDVSGQGTTVTVSSGGGGSGGGGSGGGGSGGGGSGGGGSGGGGSEVQLVESGGGLVQPGRSLRLSCAASGFTFDDYALHWVRQAPGKDLEWVSGISWNGGSYGYADSVKGRFTISRDNAKNSLYLQMNSLRAEDTALYYCVREKGPGLTGSTADYYGLDAWGQGTMVTVSSGGGGSGGGGSGGGGSGGGGSGGGGSGGGGSEVQLVESGGGLVQPGRSLRLSCAASGFTFHHYAMHWVRQAPGKGLEWVSGISWNGNKITYADSVKGRFTISRDNAKNSLYLQMNSLRAEDTALYYCVRDSSLFIVGAPTFEHWGRGTLVTVSSAAAHHHHHH
B8: TPP-1294 PDBlocker1.92-6GS-CD137A-7-6GS-HSA3 (bispecific antibody)
chain: EVQLVESGGGLVKPGGSLRLSCAASGFTFSDESMTWMRQAPGKGLEWVSYISSGGGVKFYADSVKGRFTISRDNAKNSLYLQMNSLRAEDTAVYYCAREAPLRLGESPHDAFDISGQGTMVTVSSGGGGSGGGGSGGGGSGGGGSGGGGSGGGGSEVQLVESGGGLVQPGGSLRLSCAASGFTLSNYWMNWVRQAPGKGLEWVANINQDGSERYYVDSVKGRFTISRDNAKNSLYLQMNSLRAEDTAVYYCARGGEGYGVDHYGLDVSGQGTTVTVSSGGGGSGGGGSGGGGSGGGGSGGGGSGGGGSEVQLLESGGGLVKPGGSLRLSCAASGFTVSSYTMNWVRQAPGKGLEWVSSISSSGRYIYYADSVKGRFTISRDNAKNSLYLQMNSLRAEDTAVYYCARDPRMVGNPHEFDIWGQGTMVTVSS
B9: TPP-1016: CD137A-6GS-PDA2-6GS-HSA1-His (bispecific antibody)
chain: EVQLVESGGGLVQPGGSLRLSCAASGFTLSNYWMNWVRQAPGKGLEWVANINQDGSERYYVDSVKGRFTISRDNAKNSLYLQMNSLRAEDTAVYYCARGGEGYGVDHYGLDVSGQGTTVTVSSGGGGSGGGGSGGGGSGGGGSGGGGSGGGGSEVQLVESGGGVVRPGGSLRLSCAASGFTFDDYAMSWVRQAPGKGLEWVSGITWNAGSTGYADSVKGRFTISRDNAKNSLYLQMNSLRAEDTALYYCVRDKYSYAWSYDDFDIWGQGTMVTVSSGGGGSGGGGSGGGGSGGGGSGGGGSGGGGSEVQLVESGGGLVQPGRSLRLSCAASGFTFHHYAMHWVRQAPGKGLEWVSGISWNGNKITYADSVKGRFTISRDNAKNSLYLQMNSLRAEDTALYYCVRDSSLFIVGAPTFEHWGRGTLVTVSSAAAHHHHHH
B10: TPP-1017: CD137A-6GS-PD138G7(G109D)-6GS-HSA2-His (bispecific antibody)
chain: EVQLVESGGGLVQPGGSLRLSCAASGFTLSNYWMNWVRQAPGKGLEWVANINQDGSERYYVDSVKGRFTISRDNAKNSLYLQMNSLRAEDTAVYYCARGGEGYGVDHYGLDVSGQGTTVTVSSGGGGSGGGGSGGGGSGGGGSGGGGSGGGGSEVQLVESGGGVVRPGGSLRLSCAASGFTFDDYAMSWVRQAPGKGLEWVSGITWNGGSTGYADSVKDRFTISRDNAKNSLYLQMNSLRAEDTALYYCVRDKYSYAWSYDDFDIWGQGTMVTVSSGGGGSGGGGSGGGGSGGGGSGGGGSGGGGSEVQLVESGGGLVKPGGSLRLSCAASGFTFSNYNMNWVRQAPGKGLEWVSSISSAGTHIYYADSVKGRFTISRDNAKNSLYLQMNSLRAEDTAVYYCARDPHSTGWYKDFDYWGQGTLVTVSSAAAHHHHHH
B11: TPP-1023: CD137A-6GS-HSA3-6GS-PDA-His (bispecific antibody)
chain: EVQLVESGGGLVQPGGSLRLSCAASGFTLSNYWMNWVRQAPGKGLEWVANINQDGSERYYVDSVKGRFTISRDNAKNSLYLQMNSLRAEDTAVYYCARGGEGYGVDHYGLDVSGQGTTVTVSSGGGGSGGGGSGGGGSGGGGSGGGGSGGGGSEVQLLESGGGLVKPGGSLRLSCAASGFTVSSYTMNWVRQAPGKGLEWVSSISSSGRYIYYADSVKGRFTISRDNAKNSLYLQMNSLRAEDTAVYYCARDPRMVGNPHEFDIWGQGTMVTVSSGGGGSGGGGSGGGGSGGGGSGGGGSGGGGSEVQLVESGGGLVQPGRSLRLSCAASGFTFDDYALHWVRQAPGKDLEWVSGISWNGGSYGYADSVKGRFTISRDNAKNSLYLQMNSLRAEDTALYYCVREKGPGLTGSTADYYGLDAWGQGTMVTVSSAAAHHHHHH
B12: TPP-942: PDA-6GS-172E1-13-6GS-HSA2-2-His (bispecific antibody)
chain: EVQLVESGGGLVQPGRSLRLSCAASGFTFDDYALHWVRQAPGKDLEWVSGISWNGGSYGYADSVKGRFTISRDNAKNSLYLQMNSLRAEDTALYYCVREKGPGLTGSTADYYGLDAWGQGTMVTVSSGGGGSGGGGSGGGGSGGGGSGGGGSGGGGSEVQLVESGGGVVQPGGSLRLSCAASGFTFSNYGMHWVRQAPGKGLEWVAVISNDGNTKTYADSVKGRFTISRDNSKNTLYLQMNSLRAEDTAVYYCAQDETTTVTASYYFDYWGQGTLVTVSSGGGGSGGGGSGGGGSGGGGSGGGGSGGGGSEVQLVESGGGLVKPGGSLRLSCAASGFTFSNYNMNWVRQAPGKGLEWVSSISSAGTHIYYADSVKGRFTISRDNAKNSLYLQMNSLRAEDTAVYYCARDPHSTGWYKDFDYWGQGTLVTVSSAAAHHHHHH

The experiment addresses human CD137 expressed on cells (Jurkat human CD137 NF-kB luciferase reporter cells; human CD8+ T cells) (human, UniProt Q07011 24-255). The experiment is described as follows: cell-based or functional assay.
Regarding B1, the “Jurkat-CD137/CHO-PD-1 Reporter Assay EC50” value turned out to be 0.507 nM.
For the molecule B2, the “Jurkat-CD137/CHO-PD-1 Reporter Assay EC50” value came out at 0.273 nM.
The value for B3 was 3.26 nM; that for B4 was 0.509 nM; that for B5 was 0.0809 nM.
B6: the “Jurkat-CD137/CHO-PD-1 Reporter Assay EC50” value was found to be 25.7 nM.
For the molecule B7, the “Jurkat-CD137/CHO-PD-1 Reporter Assay EC50” value came out at 0.548 nM.
Consider B8, for which the “Jurkat-CD137/CHO-PD-1 Reporter Assay EC50” value is 0.0323 nM.
For B9, the “Jurkat-CD137/CHO-PD-1 Reporter Assay EC50” value was 0.698 nM.
The same measure for B10: 0.21 nM; for B11: 0.437 nM; for B12: 57.4 nM.
